Laboratory results from US20240270846A1 (published 2024).

B1: CE115HA000/GLS3000 L33M one-arm antibody (antibody, human IgG1, kappa, L234A L235A, N297A, name in Kabat numbering)
heavy: QVQLVESGGGVVQPGRSLRLSCAASGFTFSNAWMHWVRQAPGKGLEWVAQIKAKSNNYATYYAESVKGRFTISRDDSKNSLYLQMNSLKTEDTAVYYCRYVHYGAYYGVDAWGQGTTVTVSSASTKGPSVFPLAPSSKSTSGGTAALGCLVKDYFPEPVTVSWNSGALTSGVHTFPAVLQSSGLYSLSSVVTVPSSSLGTQTYICNVNHKPSNTKVDKKVEPKSCDKTHTCPPCPAPEAAGGPSVFLFPPKPKDTLMISRTPEVTCVVVDVSHEDPEVKFNWYVDGVEVHNAKTKPREEQYASTYRVVSVLTVLHQDWLNGKEYKCKVSNKALPAPIEKTISKAKGQPREPQVYTLPPSRCELTKNQVSLSCAVKGFYPSDIAVEWESNGQPENNYKTTPPVLDSDGSFFLVSKLTVDKSRWQQGNVFSCSVMHEALHNHYTQKSLSLSPDYKDDDDK
chain: EPKSSDKTHTCPPCPAPELLGGPSVFLFPPKPKDTLMISRTPEVTCVVVDVSHEDPEVKFNWYVDGVEVHNAKTKPREEQYNSTYRVVSVLTVLHQDWLNGKEYKCKVSNKALPAPIEKTISKAKGQPREPQVCTLPPSRDELTKNQVSLWCLVKGFYPSDIAVEWESNGQPENNYKTTPPVLDSDGSFFLYSKLTVDKSRWQQGNVFSCSVMHEALHNRYTQKSLSLSP
light: DIVMTQSPLSLPVTPGEPASISCRSSQSLVHSNRNTYMHWYQQKPGQAPRLLIYKVSNRFSGVPDRFSGSGSGTDFTLKISRVEAEDVGVYYCGQGTQVPYTFGQGTKLEIKRTVAAPSVFIFPPSDEQLKSGTASVVCLLNNFYPREAKVQWKVDNALQSGNSQESVTEQDSKDSTYSLSSTLTLSKADYEKHKVYACEVTHQGLSSPVTKSFNRGEC
notes: one-arm IgG1
B2: CE115HA000/GLS3000 N53E one-arm antibody (antibody, human IgG1, kappa, L234A L235A, N297A, name in Kabat numbering)
heavy: QVQLVESGGGVVQPGRSLRLSCAASGFTFSNAWMHWVRQAPGKGLEWVAQIKAKSNNYATYYAESVKGRFTISRDDSKNSLYLQMNSLKTEDTAVYYCRYVHYGAYYGVDAWGQGTTVTVSSASTKGPSVFPLAPSSKSTSGGTAALGCLVKDYFPEPVTVSWNSGALTSGVHTFPAVLQSSGLYSLSSVVTVPSSSLGTQTYICNVNHKPSNTKVDKKVEPKSCDKTHTCPPCPAPEAAGGPSVFLFPPKPKDTLMISRTPEVTCVVVDVSHEDPEVKFNWYVDGVEVHNAKTKPREEQYASTYRVVSVLTVLHQDWLNGKEYKCKVSNKALPAPIEKTISKAKGQPREPQVYTLPPSRCELTKNQVSLSCAVKGFYPSDIAVEWESNGQPENNYKTTPPVLDSDGSFFLVSKLTVDKSRWQQGNVFSCSVMHEALHNHYTQKSLSLSPDYKDDDDK
chain: EPKSSDKTHTCPPCPAPELLGGPSVFLFPPKPKDTLMISRTPEVTCVVVDVSHEDPEVKFNWYVDGVEVHNAKTKPREEQYNSTYRVVSVLTVLHQDWLNGKEYKCKVSNKALPAPIEKTISKAKGQPREPQVCTLPPSRDELTKNQVSLWCLVKGFYPSDIAVEWESNGQPENNYKTTPPVLDSDGSFFLYSKLTVDKSRWQQGNVFSCSVMHEALHNRYTQKSLSLSP
light: DIVMTQSPLSLPVTPGEPASISCRSSQSLVHSNRNTYLHWYQQKPGQAPRLLIYKVSERFSGVPDRFSGSGSGTDFTLKISRVEAEDVGVYYCGQGTQVPYTFGQGTKLEIKRTVAAPSVFIFPPSDEQLKSGTASVVCLLNNFYPREAKVQWKVDNALQSGNSQESVTEQDSKDSTYSLSSTLTLSKADYEKHKVYACEVTHQGLSSPVTKSFNRGEC
notes: one-arm IgG1
B3: CE115HA000/GLS3000 N53F one-arm antibody (antibody, human IgG1, kappa, L234A L235A, N297A, name in Kabat numbering)
heavy: QVQLVESGGGVVQPGRSLRLSCAASGFTFSNAWMHWVRQAPGKGLEWVAQIKAKSNNYATYYAESVKGRFTISRDDSKNSLYLQMNSLKTEDTAVYYCRYVHYGAYYGVDAWGQGTTVTVSSASTKGPSVFPLAPSSKSTSGGTAALGCLVKDYFPEPVTVSWNSGALTSGVHTFPAVLQSSGLYSLSSVVTVPSSSLGTQTYICNVNHKPSNTKVDKKVEPKSCDKTHTCPPCPAPEAAGGPSVFLFPPKPKDTLMISRTPEVTCVVVDVSHEDPEVKFNWYVDGVEVHNAKTKPREEQYASTYRVVSVLTVLHQDWLNGKEYKCKVSNKALPAPIEKTISKAKGQPREPQVYTLPPSRCELTKNQVSLSCAVKGFYPSDIAVEWESNGQPENNYKTTPPVLDSDGSFFLVSKLTVDKSRWQQGNVFSCSVMHEALHNHYTQKSLSLSPDYKDDDDK
chain: EPKSSDKTHTCPPCPAPELLGGPSVFLFPPKPKDTLMISRTPEVTCVVVDVSHEDPEVKFNWYVDGVEVHNAKTKPREEQYNSTYRVVSVLTVLHQDWLNGKEYKCKVSNKALPAPIEKTISKAKGQPREPQVCTLPPSRDELTKNQVSLWCLVKGFYPSDIAVEWESNGQPENNYKTTPPVLDSDGSFFLYSKLTVDKSRWQQGNVFSCSVMHEALHNRYTQKSLSLSP
light: DIVMTQSPLSLPVTPGEPASISCRSSQSLVHSNRNTYLHWYQQKPGQAPRLLIYKVSFRFSGVPDRFSGSGSGTDFTLKISRVEAEDVGVYYCGQGTQVPYTFGQGTKLEIKRTVAAPSVFIFPPSDEQLKSGTASVVCLLNNFYPREAKVQWKVDNALQSGNSQESVTEQDSKDSTYSLSSTLTLSKADYEKHKVYACEVTHQGLSSPVTKSFNRGEC
notes: one-arm IgG1
B4: CE115HA000/GLS3000 L33V one-arm antibody (antibody, human IgG1, kappa, L234A L235A, N297A, name in Kabat numbering)
heavy: QVQLVESGGGVVQPGRSLRLSCAASGFTFSNAWMHWVRQAPGKGLEWVAQIKAKSNNYATYYAESVKGRFTISRDDSKNSLYLQMNSLKTEDTAVYYCRYVHYGAYYGVDAWGQGTTVTVSSASTKGPSVFPLAPSSKSTSGGTAALGCLVKDYFPEPVTVSWNSGALTSGVHTFPAVLQSSGLYSLSSVVTVPSSSLGTQTYICNVNHKPSNTKVDKKVEPKSCDKTHTCPPCPAPEAAGGPSVFLFPPKPKDTLMISRTPEVTCVVVDVSHEDPEVKFNWYVDGVEVHNAKTKPREEQYASTYRVVSVLTVLHQDWLNGKEYKCKVSNKALPAPIEKTISKAKGQPREPQVYTLPPSRCELTKNQVSLSCAVKGFYPSDIAVEWESNGQPENNYKTTPPVLDSDGSFFLVSKLTVDKSRWQQGNVFSCSVMHEALHNHYTQKSLSLSPDYKDDDDK
chain: EPKSSDKTHTCPPCPAPELLGGPSVFLFPPKPKDTLMISRTPEVTCVVVDVSHEDPEVKFNWYVDGVEVHNAKTKPREEQYNSTYRVVSVLTVLHQDWLNGKEYKCKVSNKALPAPIEKTISKAKGQPREPQVCTLPPSRDELTKNQVSLWCLVKGFYPSDIAVEWESNGQPENNYKTTPPVLDSDGSFFLYSKLTVDKSRWQQGNVFSCSVMHEALHNRYTQKSLSLSP
light: DIVMTQSPLSLPVTPGEPASISCRSSQSLVHSNRNTYVHWYQQKPGQAPRLLIYKVSNRFSGVPDRFSGSGSGTDFTLKISRVEAEDVGVYYCGQGTQVPYTFGQGTKLEIKRTVAAPSVFIFPPSDEQLKSGTASVVCLLNNFYPREAKVQWKVDNALQSGNSQESVTEQDSKDSTYSLSSTLTLSKADYEKHKVYACEVTHQGLSSPVTKSFNRGEC
notes: one-arm IgG1
B5: CE115HA000/GLS3000 N53G one-arm antibody (antibody, human IgG1, kappa, L234A L235A, N297A, name in Kabat numbering)
heavy: QVQLVESGGGVVQPGRSLRLSCAASGFTFSNAWMHWVRQAPGKGLEWVAQIKAKSNNYATYYAESVKGRFTISRDDSKNSLYLQMNSLKTEDTAVYYCRYVHYGAYYGVDAWGQGTTVTVSSASTKGPSVFPLAPSSKSTSGGTAALGCLVKDYFPEPVTVSWNSGALTSGVHTFPAVLQSSGLYSLSSVVTVPSSSLGTQTYICNVNHKPSNTKVDKKVEPKSCDKTHTCPPCPAPEAAGGPSVFLFPPKPKDTLMISRTPEVTCVVVDVSHEDPEVKFNWYVDGVEVHNAKTKPREEQYASTYRVVSVLTVLHQDWLNGKEYKCKVSNKALPAPIEKTISKAKGQPREPQVYTLPPSRCELTKNQVSLSCAVKGFYPSDIAVEWESNGQPENNYKTTPPVLDSDGSFFLVSKLTVDKSRWQQGNVFSCSVMHEALHNHYTQKSLSLSPDYKDDDDK
chain: EPKSSDKTHTCPPCPAPELLGGPSVFLFPPKPKDTLMISRTPEVTCVVVDVSHEDPEVKFNWYVDGVEVHNAKTKPREEQYNSTYRVVSVLTVLHQDWLNGKEYKCKVSNKALPAPIEKTISKAKGQPREPQVCTLPPSRDELTKNQVSLWCLVKGFYPSDIAVEWESNGQPENNYKTTPPVLDSDGSFFLYSKLTVDKSRWQQGNVFSCSVMHEALHNRYTQKSLSLSP
light: DIVMTQSPLSLPVTPGEPASISCRSSQSLVHSNRNTYLHWYQQKPGQAPRLLIYKVSGRFSGVPDRFSGSGSGTDFTLKISRVEAEDVGVYYCGQGTQVPYTFGQGTKLEIKRTVAAPSVFIFPPSDEQLKSGTASVVCLLNNFYPREAKVQWKVDNALQSGNSQESVTEQDSKDSTYSLSSTLTLSKADYEKHKVYACEVTHQGLSSPVTKSFNRGEC
notes: one-arm IgG1
B6: CE115HA000/GLS3000 L33P one-arm antibody (antibody, human IgG1, kappa, L234A L235A, N297A, name in Kabat numbering)
heavy: QVQLVESGGGVVQPGRSLRLSCAASGFTFSNAWMHWVRQAPGKGLEWVAQIKAKSNNYATYYAESVKGRFTISRDDSKNSLYLQMNSLKTEDTAVYYCRYVHYGAYYGVDAWGQGTTVTVSSASTKGPSVFPLAPSSKSTSGGTAALGCLVKDYFPEPVTVSWNSGALTSGVHTFPAVLQSSGLYSLSSVVTVPSSSLGTQTYICNVNHKPSNTKVDKKVEPKSCDKTHTCPPCPAPEAAGGPSVFLFPPKPKDTLMISRTPEVTCVVVDVSHEDPEVKFNWYVDGVEVHNAKTKPREEQYASTYRVVSVLTVLHQDWLNGKEYKCKVSNKALPAPIEKTISKAKGQPREPQVYTLPPSRCELTKNQVSLSCAVKGFYPSDIAVEWESNGQPENNYKTTPPVLDSDGSFFLVSKLTVDKSRWQQGNVFSCSVMHEALHNHYTQKSLSLSPDYKDDDDK
chain: EPKSSDKTHTCPPCPAPELLGGPSVFLFPPKPKDTLMISRTPEVTCVVVDVSHEDPEVKFNWYVDGVEVHNAKTKPREEQYNSTYRVVSVLTVLHQDWLNGKEYKCKVSNKALPAPIEKTISKAKGQPREPQVCTLPPSRDELTKNQVSLWCLVKGFYPSDIAVEWESNGQPENNYKTTPPVLDSDGSFFLYSKLTVDKSRWQQGNVFSCSVMHEALHNRYTQKSLSLSP
light: DIVMTQSPLSLPVTPGEPASISCRSSQSLVHSNRNTYPHWYQQKPGQAPRLLIYKVSNRFSGVPDRFSGSGSGTDFTLKISRVEAEDVGVYYCGQGTQVPYTFGQGTKLEIKRTVAAPSVFIFPPSDEQLKSGTASVVCLLNNFYPREAKVQWKVDNALQSGNSQESVTEQDSKDSTYSLSSTLTLSKADYEKHKVYACEVTHQGLSSPVTKSFNRGEC
notes: one-arm IgG1

molecular target: T1, CD3 epsilon homodimer protein (UniProt P07766 23-126); assay: SPR (Biacore T200), CD3e homodimer on CM4 chip, antibody as analyte; KD ratio vs unaltered GLS3000;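 note: CD3 epsilon homodimer amine-coupled to the sensor surface, antibodies injected as analyte at 25 °C with HBS-EP+ running buffer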
T1 construct: also called CD3 (CD3 epsilon)
T1 sequence (P07766 23-126): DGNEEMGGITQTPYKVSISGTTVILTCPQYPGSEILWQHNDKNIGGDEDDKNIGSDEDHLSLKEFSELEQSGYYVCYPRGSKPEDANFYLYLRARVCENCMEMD

Question: Which “KD ratio to GLS3000” value does the source give for B1 here?
Answer: The value was 0.9 ratio.

Question: With B2 as the binder, how does the “KD ratio to GLS3000” value read?
Answer: Its value is 2.47 ratio.

Question: With B3 as the binder, how does the “KD ratio to GLS3000” value read?
Answer: Its value is 0.96 ratio.

Question: With B4 as the binder, how does the “KD ratio to GLS3000” value read?
Answer: Its value is 1.26 ratio.

Question: With B5 as the binder, how does the “KD ratio to GLS3000” value read?
Answer: The value was 1.33 ratio.

Question: How did the “KD ratio to GLS3000” value turn out when B6 was run?
Answer: Its value is 32.7 ratio.
